The values that follow are results of earlier work, collected in publication PMC8776070.

Broadly, the Kd is the concentration at which binding is half-saturated.

Some targets named below: CXCR1 (Homo sapiens) (UniProt P25024); ACKR1 (Homo sapiens) (UniProt Q16570); CXCR2 (Homo sapiens) (UniProt P25025).
Sequence of UniProt P25025 (P25025 whole entry): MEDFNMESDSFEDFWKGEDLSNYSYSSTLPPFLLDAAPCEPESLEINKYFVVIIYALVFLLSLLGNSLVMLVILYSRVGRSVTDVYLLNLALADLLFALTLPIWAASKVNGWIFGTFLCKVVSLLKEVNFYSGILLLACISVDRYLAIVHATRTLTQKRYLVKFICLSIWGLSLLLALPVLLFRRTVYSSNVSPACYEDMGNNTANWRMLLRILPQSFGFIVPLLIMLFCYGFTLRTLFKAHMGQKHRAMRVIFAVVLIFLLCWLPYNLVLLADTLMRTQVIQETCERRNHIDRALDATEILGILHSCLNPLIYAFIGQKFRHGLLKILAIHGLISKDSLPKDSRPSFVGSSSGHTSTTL
Sequence of UniProt Q16570 (Q16570 whole entry): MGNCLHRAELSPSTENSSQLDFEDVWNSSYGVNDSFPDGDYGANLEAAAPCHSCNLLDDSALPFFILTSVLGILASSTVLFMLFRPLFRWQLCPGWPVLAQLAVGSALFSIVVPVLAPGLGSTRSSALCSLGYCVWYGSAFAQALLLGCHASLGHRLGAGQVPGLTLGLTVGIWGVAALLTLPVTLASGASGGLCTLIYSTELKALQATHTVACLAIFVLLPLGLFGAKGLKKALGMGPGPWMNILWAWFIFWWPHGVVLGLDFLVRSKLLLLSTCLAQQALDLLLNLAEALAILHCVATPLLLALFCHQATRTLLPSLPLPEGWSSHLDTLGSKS
Sequence of UniProt P25024 (P25024 whole entry): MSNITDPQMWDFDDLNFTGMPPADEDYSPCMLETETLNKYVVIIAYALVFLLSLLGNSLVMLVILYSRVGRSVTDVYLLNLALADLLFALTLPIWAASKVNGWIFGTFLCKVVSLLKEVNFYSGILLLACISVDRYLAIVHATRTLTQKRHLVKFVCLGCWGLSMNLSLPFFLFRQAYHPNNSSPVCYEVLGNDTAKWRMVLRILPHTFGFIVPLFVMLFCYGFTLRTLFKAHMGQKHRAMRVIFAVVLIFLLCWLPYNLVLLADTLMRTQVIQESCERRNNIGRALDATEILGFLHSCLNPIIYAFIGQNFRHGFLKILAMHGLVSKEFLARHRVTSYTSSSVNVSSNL

Turning to CXCL1 (from UniProt P09341), the Kd with CXCR1 (Homo sapiens) is 300 nM; with ACKR1 (Homo sapiens) it was 1.81 nM; in the data set with CXCR2 (Homo sapiens), 3 nM.
